Laboratory results: US20160346402A1 (Bayer, published 2016)

Columns and labels:
[1] = molecular target: T1, TPP-2305, hTNFRSF12 amino acids a28-80 (recombinant human TWEAKR protein) (human, UniProt Q9NP84 28-80); assay: SPR (Biacore T100), antibody captured, TWEAKR TPP-2305 as analyte, 1:1 model
T1 construct: Soluble monomeric antigen, injected as analyte over the captured antibodies; Bought protein
Description: The antibodies were immobilized on a CM5 sensor chip using an indirect capture reagent, anti-human IgG(Fc). Reagents of the “Human Antibody Capture Kit” (BR-1008-39, GE Healthcare Biacore, Inc.) were used as described by the manufacturer.
Sensorgrams were generated after in-line reference cell correction, followed by subtraction of the buffer sample. The dissociation constant (KD) was calculated based on the ratio of association (kₒₙ) and dissociation (koff) constants, obtained by fitting sensorgrams using a 1:1 first order binding model.

[2] = molecular target: T2, hTNFRSF12 amino acids a28-80-M50A-hIgG1-Fc (human); assay: ELISA: TWEAKR-Fc construct coated at 62 ng/ml, biotinylated IgG titrated from 100 nM; token + marks IC50 of 1 to […] pM
T2 construct: TWEAKR-Fc mutein, coated on the ELISA plate; also called TPP-1988
Description: (§1) To obtain dose-reaction data, the different TWEAKR-Fc muteins were coated at a low concentration (62 ng/ml) onto a 384-well Maxisorb ELISA plate, and a serial 2-fold dilution of biotinylated IgG beginning with a concentration of 100 nM was used as a soluble binding partner. Detection was carried out using streptavidin-HRP and Amplex Red.
(§2) IgGs were biotinylated using an about 2-fold molar excess of biotin-LC-NHS (Pierce; Cat. No. 21347) according to the instructions of the manufacturer and desalted using Zeba desalting columns (Pierce; Cat. No. 89889).

[3] = molecular target: T3, hTNFRSF12 amino acids a28-80-T33Q-hIgG1-Fc (human); assay: as above
T3 construct: TWEAKR-Fc mutein, coated on the ELISA plate; also called TPP-1986
Description: as §1, §2

[4] = molecular target: T4, hTNFRSF12 amino acids a28-80-hIgG1-Fc (human); assay: as above
T4 construct: wild-type TWEAKR-Fc (dimeric Fc fusion), coated on the ELISA plate; also called TPP-599; HUMAN-TNFRSF12Aaa28-80-hIgG1-Fc
Description: as §1, §2

[5] = molecular target: T5, hTNFRSF12 amino acids a28-80-H60K-hIgG1-Fc (human); assay: as above
T5 construct: TWEAKR-Fc mutein, coated on the ELISA plate; also called TPP-1989
Description: as §1, §2

[6] = molecular target: T6, hTNFRSF12 amino acids a28-80-L65Q-hIgG1-Fc (human); assay: as above
T6 construct: TWEAKR-Fc mutein, coated on the ELISA plate
Description: as §1, §2

[7] = molecular target: T7, hTNFRSF12 amino acids a28-80-S40R-hIgG1-Fc (human); assay: as above
T7 construct: TWEAKR-Fc mutein, coated on the ELISA plate; also called TPP-1987
Description: as §1, §2

| Binder | Kd [1] | koff [1] | kon [1] | binding result [2] | binding result [3] | binding result [4] | binding result [5] | binding result [6] | binding result [7] |
| --- | --- | --- | --- | --- | --- | --- | --- | --- | --- |
| P3G5(TPP-2195) (antibody, mouse IgG2a, kappa, V domains shown, Comparative antibody, murine IgG2a; variable domains from WO2009/140177 with added constant regions) VH: QVQLQQSGPEVVRPGVSVKISCKGSGYTFTDYGIHWVKQSHAKSLEWIGVISTYNGYTNYNQKFKGKATMTVDKSSSTAYMELARLTSEDSAIYYCARAYYGNLYYAMDYWGQGTSVTVSS VL: DIVLTQSPASLAVSLGQRATISCRANKSVSTSSYSYMHWYQQKPGQPPKLLIKYASNLESGVPARFSGSGSGTDFILNIHPVEEEDAATYYCQHSRELPFTFGSGTKLEIKR | 0.5 nM | 0.00122 s⁻¹ | 2.31e+06 M⁻¹ s⁻¹ | – | – | – | – | – | – |
| PDL-192(TPP-1104) (antibody, human IgG1, kappa, V domains shown, human IgG1; variable domains from WO2009/020933 with a human IgG1 constant region added; biotinylated IgG in the ELISA) VH: QVELVESGGGLVQPGGSLRLSCAASGFTFSSYWMSWVRQAPGKGLEWVAEIRLKSDNYATHYAESVKGRFTISRDDSKNSLYLQMNSLRAEDTAVYYCTGYYADAMDYWGQGTLVTVSS VL: DIQMTQSPSSLSASVGDRVTITCRASQSVSTSSYSYMHWYQQKPGKAPKLLIKYASNLESGVPSRFSGSGSGTDFTLTISSLQPEDFATYYCQHSWEIPYTFGGGTKVEIKR | – | – | – | binds | – | – | – | – | – |
| 136.1(TPP-2194) (antibody, mouse IgG2a, kappa, V domains shown, murine IgG2a; variable domains from WO2009/020933 with a murine IgG2 constant region added; biotinylated IgG in the ELISA) VH: EVKLEESGGGLVQPGGSMKLSCVASGFTFNNYWMSWVRQSPEKGLEWLAEIRLKSDNYATHYAESVKGKFTISRDDSKSRLYLQMNNLRAENTGIYYCTGGFADYFDYWGQGTTLTVSS VL: DIVLTQSPASLTVSLGQRATISCRASQSVSTSSYSYMQWYQQRPGQPPKLLIKYATNLDSGVPARFSGSGSGTDFTLNIHPVEEEDAATYYCQHSWEIPYTFGGGTKLEIKR | – | – | – | binds | binds | binds | binds | binds | binds |
| 18.3.3(TPP-2193) (antibody, mouse IgG2a, kappa, V domains shown, murine IgG2a; variable domains from WO2009/020933 with a murine IgG2 constant region added; biotinylated IgG in the ELISA) VH: EVKLGESGGGLVQPGGSMKLSCVASGFPFTKYWMNWVRQSPEKGLEWVAEIRLKSDNYATHYAESAKGRFTISRDDSRSSVYLQMNNLRAEDTAIYYCSPTYADTMDYWGQGTSVTVSS VL: DIVLTQSPASLAVSLGQRATISCKASQSVSTSTYSYMQWYQQRPGQSPKLLIKYASKLDSGVPARFSGSGSGTDFTLNIHPVEEEDTATYYCQHSWELPYTFGGGTRLEIKR | – | – | – | binds | binds | binds | binds | binds | binds |
| TPP-883 (antibody, human IgG1, kappa, V domains shown, human IgG1) VH: EVQLLESGGGLVQPGGSLRLSCAASGFTFSPYPMMWVRQAPGKGLEWVSYISPSGGKTHYADSVKGRFTISRDNSKNTLYLQMNSLRAEDTAVYYCARGGDGYFDYFDYWGQGTLVTVSS VL: DIQMTQSPATLSASVGDRVTITCRASQSISSYLNWYQQKPGKAPKLLIYAASSLQSGVPSRFSGSGSGTDFTLTISSLQPEDFATYYCQQSYSSPGITFGPGTKVEIKR | 206 nM | 0.91 s⁻¹ | 4.4e+06 M⁻¹ s⁻¹ | – | – | – | – | – | – |
| TPP-1538 (antibody, human IgG1, kappa, human IgG1) light: AQDIQMTQSPATLSASVGDRVTITCRASQSISSYLNWYQQKPGKAPKLLIYAASSLQSGVPSRFSGSGSGTDFTLTISSLQPEDFATYYCQQSYSSPGITFGPGTKVEIKRTVAAPSVFIFPPSDEQLKSGTASVVCLLNNFYPREAKVQWKVDNALQSGNSQESVTEQDSKDSTYSLSSTLTLSKADYEKHKLYACEVTHQGLSSPVTKSFNRGEC heavy: not shown | 27.6 nM | 0.11 s⁻¹ | 4.2e+06 M⁻¹ s⁻¹ | – | – | – | – | – | – |
| TPP-2148 (antibody, human IgG1, kappa, V domains shown, human IgG1) VH: EVQLLESGGGLVQPGGSLRLSCAASGFTFSPYPMMWVRQAPGKGLEWVSYISPSGGKTHYADSVKGRFTISRDNSKNTLYLQMNSLRAEDTAVYYCARGGDTYFDYFDYWGQGTLVTVSS VL: DIQMTQSPATLSASVGDRVTITCRASQSISSYLNWYQQKPGKAPKLLIYQASSLQSGVPSRFSGSGSGTDFTLTISSLQPEDFATYYCQQSYTSPFITFGPGTKVEIKR | 24.5 nM | 0.13 s⁻¹ | 5.1e+06 M⁻¹ s⁻¹ | – | – | – | – | – | – |
| TPP-2077 (antibody, human IgG1, kappa, human IgG1) light: DIQMTQSPATLSASVGDRVTITCRASQSISSYLNWYQQKPGKAPKLLIYAASSLQSGVPSRFSGSGSGTDFTLTISSLQPEDFATYYCQQSYSSPGITFGPGTKVEIKRTVAAPSVFIFPPSDEQLKSGTASVVCLLNNFYPREAKVQWKVDNALQSGNSQESVTEQDSKDSTYSLSSTLTLSKADYEKHKLYACEVTHQGLSSPVTKSFNRGEC heavy: not shown | 28.9 nM | 0.086 s⁻¹ | 3e+06 M⁻¹ s⁻¹ | – | – | – | – | – | – |
| TPP-2084 (antibody, human IgG1, kappa, V domains shown, human IgG1) VH: EVQLLESGGGLVQPGGSLRLSCAASGFTFSPYPMMWVRQAPGKGLEWVSYISPSGGSTHYADSVKGRFTISRDNSKNTLYLQMNSLRAEDTAVYYCARGGDTYFDYFDYWGQGTLVTVSS VL: not shown | 27.6 nM | 0.11 s⁻¹ | 4.2e+06 M⁻¹ s⁻¹ | – | – | – | – | – | – |
| TPP-2090 (antibody, human IgG1, kappa, V domains shown, human IgG1; also called anti-TWEAKR AK-1) VH: EVQLLESGGGLVQPGGSLRLSCAASGFTFSPYPMIWVRQAPGKGLEWVSYISPSGGSTHYADSVKGRFTISRDNSKNTLYLQMNSLRAEDTAVYYCARGGDTYFDYFDYWGQGTLVTVSS VL: DIQMTQSPSSLSASVGDRVTITCRASQSISGYLNWYQQKPGKAPKLLIYQASSLQSGVPSRFSGSGSGTDFTLTISSLQPEDFATYYCQQSYTSPFITFGQGTKVEIKR | 12.4 nM | 0.11 s⁻¹ | 9.1e+06 M⁻¹ s⁻¹ | – | – | – | – | – | – |
| TPP-2093 (antibody, human IgG1, kappa, V domains shown, human IgG1) VH: EVQLLESGGGLVQPGGSLRLSCAASGFTFSPYPMMWVRQAPGKGLEWVSYISPSGGSTHYADSVKGRFTISRDNSKNTLYLQMNSLRAEDTAVYYCARGGDTYFDYFDYWGQGTLVTVSS VL: DIQMTQSPSSLSASVGDRVTITCRASQSISSYLNWYQQKPGKAPKLLIYQASSLQSGVPSRFSGSGSGTDFTLTISSLQPEDFATYYCQQSYTSPFITFGQGTKVEIKR | 22.1 nM | 0.09 s⁻¹ | 4.1e+06 M⁻¹ s⁻¹ | – | – | – | – | – | – |
| TPP-2149 (antibody, human IgG1, kappa, V domains shown, human IgG1) VH: EVQLLESGGGLVQPGGSLRLSCAASGFTFSPYPMIWVRQAPGKGLEWVSYISPSGGKTHYADSVKGRFTISRDNSKNTLYLQMNSLRAEDTAVYYCARGGDTYFDYFDYWGQGTLVTVSS VL: DIQMTQSPATLSASVGDRVTITCRASQSISGYLNWYQQKPGKAPKLLIYQASSLQSGVPSRFSGSGSGTDFTLTISSLQPEDFATYYCQQSYTSPFITFGPGTKVEIKR | 12.1 nM | 0.1 s⁻¹ | 8.4e+06 M⁻¹ s⁻¹ | – | – | – | – | – | – |
| 136.1(TPP-2194) (antibody, mouse IgG2a, kappa, V domains shown, Comparative antibody, murine IgG2a; variable domains from WO2009/020933 with added constant regions) VH: EVKLEESGGGLVQPGGSMKLSCVASGFTFNNYWMSWVRQSPEKGLEWLAEIRLKSDNYATHYAESVKGKFTISRDDSKSRLYLQMNNLRAENTGIYYCTGGFADYFDYWGQGTTLTVSS VL: DIVLTQSPASLTVSLGQRATISCRASQSVSTSSYSYMQWYQQRPGQPPKLLIKYATNLDSGVPARFSGSGSGTDFTLNIHPVEEEDAATYYCQHSWEIPYTFGGGTKLEIKR | 0.8 nM | 0.0324 s⁻¹ | 3.84e+07 M⁻¹ s⁻¹ | – | – | – | – | – | – |
| 18.3.3(TPP-2193) (antibody, mouse IgG2a, kappa, V domains shown, Comparative antibody, murine IgG2a; variable domains from WO2009/020933 with added constant regions) VH: EVKLGESGGGLVQPGGSMKLSCVASGFPFTKYWMNWVRQSPEKGLEWVAEIRLKSDNYATHYAESAKGRFTISRDDSRSSVYLQMNNLRAEDTAIYYCSPTYADTMDYWGQGTSVTVSS VL: DIVLTQSPASLAVSLGQRATISCKASQSVSTSTYSYMQWYQQRPGQSPKLLIKYASKLDSGVPARFSGSGSGTDFTLNIHPVEEEDTATYYCQHSWELPYTFGGGTRLEIKR | 1.7 nM | 0.0285 s⁻¹ | 1.64e+07 M⁻¹ s⁻¹ | – | – | – | – | – | – |
| P4A8(TPP-1324) (antibody, human IgG1, kappa, V domains shown, Comparative antibody, human IgG1; variable domains from WO2009/140177 with added constant regions) VH: QVQLVQSGAEVKKPGASVKVSCKGSGYTFTDYGMHWVRQAPGQGLEWMGVISTYNGYTNYNQKFKGRVTMTVDKSTSTAYMELRSLRSDDTAVYYCARAYYGNLYYAMDYWGQGTLVTVSS VL: DIVLTQSPASLAVSLGQRATISCRASKSVSTSSYSYMHWYQQKPGQPPKLLIKYASNLESGVPARFSGSGSGTDFSLNIHPMEEDDTAMYFCQHSRELPFTFGGGTKLEIKR | 2.3 nM | 0.0027 s⁻¹ | 1.2e+06 M⁻¹ s⁻¹ | – | – | – | – | – | – |
